Publication PMC7948450

Molecular target: ancestral flavin-containing monooxygenase 1 (AncFMO1), reconstructed mammalian ancestor of FMO1 (reconstructed mammalian ancestor)
Test: crystal structure; AncFMO1 12.5 mg/ml with 1.0 mM NADP+ in storage buffer with 0.03% DDM; sitting drop, 20 °C, 100 mM Hepes pH 7.5, PEG 4000 10%, glycerol 20%; 3.0 Å; asymmetric unit of two dimers

stoichiometry N: 2
Substance: ancestral flavin-containing monooxygenase 1 (AncFMO1), reconstructed mammalian ancestor of FMO1 (enzyme)
